We go through one molecule from patent publication US20120184016A1, “NOVEL PROTEIN AND GENE THAT CODES THEREFOR” (priority 2009, published 2012).

Common to all, as to format: biochemical
Series [1] in a line: Sialyltransferase activity of crude enzyme solution (14C CMP-NeuAc transfer to lactose). Conditions: crude enzyme extraction solution from transformed E. coli; with acceptor (120 mM lactose); 30° C. for 30 minutes; duplicate.
Series [2] in a line: Enzyme activity of the sample after each purification step. The text has this: The sialyltransferase activity may be measured by a known method, for example, the process described in J. Biochem., 120, 104-110 (1996) (which is hereby incorporated by reference in its entirety). For example, the enzyme activity can be evaluated by performing an enzyme reaction using CMP-NeuAc (N-acetylneuraminic acid) as a sugar donor substrate and lactose as a sugar acceptor substrate and evaluating the amount of the reaction product, i.e., sialyllactose. Note that one enzyme unit (1 U) of sialyltransferase is defined as the amount of the enzyme required to transfer one micromole of sialic acid per minute.
Sialyltransferase activity was measured by a method described in J. Biochem., 120, 104-110 (1996) (which is hereby incorporated by reference in its entirety). Specifically, the enzyme reaction was performed using a reaction solution (30 μL) containing CMP-NeuAc (70 nmol, containing about 20000 cpm CMP-NeuAc in which NeuAc was labeled with ^14C; NeuAc represents N-acetylneuraminic acid) as a sugar donor substrate, lactose (1.25 μmol) as a sugar acceptor substrate, NaCl added to give a concentration of 0.5 M, and the enzyme prepared as described above. The enzyme reaction was carried out at 25° C. for about 10 to 180 minutes. After completion of the reaction, 1.97 mL of 5 mM phosphate buffer (pH 6.8) was added to the reaction solution, which was then applied to a Dowex 1×8 (PO4^3− form, 0.2×2 cm, manufactured by Bio-Rad Laboratories, Inc.) column. The radioactivity contained in the reaction product contained in the eluate (0 to 2 mL) from this column, that is, sialyllactose, was measured to calculate the enzyme activity. One enzyme unit (1 U) is defined as the amount of enzyme required to transfer one micromole of sialic acid per minute.
The enzyme activity was measured by the method described in J. Biochem., 120, 104-110 (1996), as in Example 1. The amount of the protein was measured using a Coomassie Protein Assay Reagent (manufactured by Pierce) in accordance with the instruction manual attached thereto. One enzyme unit (1 U) was defined as the amount of enzyme required to transfer one micromole of sialic acid per minute.

A short description of series [3]: Optimum pH and optimum temperature for neuraminidase activity. Conditions: purified enzyme. The procedure:
The optimum pH and the optimum temperature for neuraminidase activity of the recombinant β-galactoside-α2,6-sialyltransferase SHIZ119-N1C0 derived from the JT-SHIZ-119 strain were investigated using the purified enzyme prepared in Example 3.
The enzyme activity at various pH levels was measured at 35° C. with the buffer used in Example 4.
The neuraminidase activity was measured at every increment of 5° C. starting from 5° C. up to 50° C. using cacodylate buffer (pH 6.0).

Where “and” joins values, the source holds several entries; their conditions need not be identical. Equal values may be shown once.

B1: SHIZ119-N1C0 (protein)
chain: MCNDNQNTVDVVVSTVNDNVIENNTYQVKPIDTPTTFDSYSWIQTCGTPILKDDEKYSLSFDFVAPELDQDEKFCFEFTGDVDGKRYVTQTNLTVVAPTLEVYVDHASLPSLQQLMKIIQQKNEYSQNERFISWGRIGLTEDNAEKLNAHIYPLAGNNTSQELVDAVIDYADSKNRLNLELNTNTAHSFPNLAPILRIISSKSNILISNINLYDDGSAEYVNLYNWKDTEDKSVKLSDSFLVLKDYFNGISSEKPSGIYGRYNWHQLYNTSYYFLRKDYLTVEPQLHDLREYLGGSLKQMSWDGFSQLSKGDKELFLNIVGFDQEKLQQEYQQSELPNFVFTGTTTWAGGETKEYYAQQQVNVVNNAINETSPYYLGREHDLFFKGHPRGGIINDIILGSFNNMIDIPAKVSFEVLMMTGMLPDTVGGIASSLYFSIPAEKVSFIVFTSSDTITDREDALKSPLVQVMMTLGIVKEKDVLFWSDLPDCSSGVCIAQY
modifications: beta-galacoside-alpha-2,6-sialyltransferase from phorobacterium leiognathi (without signal peptide)
Take B1: the “Transferred NeuAc” value in series [1] is 7786 cpm and 8446 cpm. Besides, the Specific activity in series [2] (sample: Crude enzyme solution) turned out to be 5.5 U/mg; in series [2] (sample: HAP) it was 82.9 U/mg; in series [2] (sample: Mono-Q), 36.2 U/mg; in series [2] (sample: Q-sepharose) it was 35.6 U/mg. Moreover, the “pH at which neuraminidase activity is the highest (optimum pH)” value in series [3] (35° C., FIG. 4-1) is 6.0. The “temperature at which neuraminidase activity is the highest (optimum temperature)” value in series [3] (cacodylate buffer (pH 6.0), 5° C. up to 50° C., FIG. 4-2) was 35 °C.
